Consider two molecules from patent US20210163534A1 (KYUNGPOOK NATIONAL UNIVERSITY INDUSTRY ACADEMIC COOPERATION …, published 2021).

The assay deals with T1, PD-L1 expressed on MDA-MB231 cells (human, UniProt Q9NZQ7 19-290).
T1 construct: whole, on cells; Endogenous protein of a human cell line; also called MDA-MB 231 cells expressing PD-L1
As to the kind of experiment: flow cytometry on MDA-MB231 cells after siRNA knockdown of PD-L1. For orientation: Flow cytometry measures light scatter and fluorescence of single cells or particles in a stream.

No end group written: not given here.

T1 sequence (Q9NZQ7 19-290): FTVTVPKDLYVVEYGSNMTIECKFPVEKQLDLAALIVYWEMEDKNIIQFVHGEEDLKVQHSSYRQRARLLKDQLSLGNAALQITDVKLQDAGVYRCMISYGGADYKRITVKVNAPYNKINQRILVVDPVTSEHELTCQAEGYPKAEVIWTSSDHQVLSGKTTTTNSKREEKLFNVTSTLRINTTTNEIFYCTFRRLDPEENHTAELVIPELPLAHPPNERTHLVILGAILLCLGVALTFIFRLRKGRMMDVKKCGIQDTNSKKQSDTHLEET

B1: PD-L1Pep-2 (peptide)
peptide: CVRARTR
modifications: also: N-terminal FITC, biotin or Flamma-675 depending on assay
notes: Synthetic peptide CVRARTR from a T7 phage library; also called PBP
As to B1, the binding result was “binds”.

B2: PD-L1Pep-1 (peptide)
peptide: CLQKTPKQC
modifications: cysteine pairing not given here; also: N-terminal FITC, biotin or Flamma-675 depending on assay
notes: also called PBP
In the case of B2, the binding result is listed as “binds”.
